Measured values: patent US20140147444A1 (published 2014)
Like-named read-outs stand apart in the source and are kept apart here.

T1: human OPGbp [143-317] (human, UniProt O14788 143-317)
T1 construct: also called OPGL
T1 sequence (looked up): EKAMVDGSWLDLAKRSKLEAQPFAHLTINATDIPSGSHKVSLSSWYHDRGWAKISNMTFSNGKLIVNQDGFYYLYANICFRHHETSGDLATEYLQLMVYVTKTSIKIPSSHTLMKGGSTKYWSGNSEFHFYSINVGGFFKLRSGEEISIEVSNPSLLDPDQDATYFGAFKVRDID


Experiments:
[1] = target: T1, human OPGbp [143-317]; assay: SPR (BIAcore), immobilized OPGbp [143-317]
[2] = target: T1, human OPGbp [143-317]; assay: SPR (BIAcore), immobilized OPGbp [143-317]; remark: listed apart in the source

Binder	Kd [1]	koff [1]	kon [1]	Kd [2]	koff [2]	kon [2]	also measured
“AT” antibody variant S96A (heavy chain CDR3) (antibody, name in Kabat numbering, V domains shown, not shown: human IgG1 CH1, hinge, CH2 and CH3) VH: QVQLVQSGAEVRKPGASVKVSCKASGYDFSNYAIHWVRQAPGQRLEWMGWINAGNGNTKFSQKFQGRITVTRDTAASTAYMELRSLRSEDTAVYYCARDASNMVRGIIIAYYFDYWGQGTLVTVSS VL: EIVMTQSPSSLSASVGDRVTITCRASQSISRYLNWYQLKPGKAPRLLIYGASSLQSGVPSRFSGSGSGAEFTLTISSLQPEDIATYYCQHTRAFGQGTKVEIKR	2.5 nM	0.00064 s⁻¹	260000 M⁻¹ s⁻¹				
“AT” antibody variant S96A, S97A (heavy chain CDR3) (antibody, name in Kabat numbering, V domains shown, not shown: human IgG1 CH1, hinge, CH2 and CH3) VH: QVQLVQSGAEVRKPGASVKVSCKASGYDFSNYAIHWVRQAPGQRLEWMGWINAGNGNTKFSQKFQGRITVTRDTAASTAYMELRSLRSEDTAVYYCARDAANMVRGIIIAYYFDYWGQGTLVTVSS VL: EIVMTQSPSSLSASVGDRVTITCRASQSISRYLNWYQLKPGKAPRLLIYGASSLQSGVPSRFSGSGSGAEFTLTISSLQPEDIATYYCQHTRAFGQGTKVEIKR	8.9 nM	0.00284 s⁻¹	317000 M⁻¹ s⁻¹				
“AT” antibody variant S97A (heavy chain CDR3) (antibody, name in Kabat numbering, V domains shown, not shown: human IgG1 CH1, hinge, CH2 and CH3) VH: QVQLVQSGAEVRKPGASVKVSCKASGYDFSNYAIHWVRQAPGQRLEWMGWINAGNGNTKFSQKFQGRITVTRDTAASTAYMELRSLRSEDTAVYYCARDSANMVRGIIIAYYFDYWGQGTLVTVSS VL: EIVMTQSPSSLSASVGDRVTITCRASQSISRYLNWYQLKPGKAPRLLIYGASSLQSGVPSRFSGSGSGAEFTLTISSLQPEDIATYYCQHTRAFGQGTKVEIKR	2.9 nM	0.0015 s⁻¹	530000 M⁻¹ s⁻¹				
“AT” antibody variant S97W (heavy chain CDR3) (antibody, name in Kabat numbering, V domains shown, not shown: human IgG1 CH1, hinge, CH2 and CH3) VH: QVQLVQSGAEVRKPGASVKVSCKASGYDFSNYAIHWVRQAPGQRLEWMGWINAGNGNTKFSQKFQGRITVTRDTAASTAYMELRSLRSEDTAVYYCARDSWNMVRGIIIAYYFDYWGQGTLVTVSS VL: EIVMTQSPSSLSASVGDRVTITCRASQSISRYLNWYQLKPGKAPRLLIYGASSLQSGVPSRFSGSGSGAEFTLTISSLQPEDIATYYCQHTRAFGQGTKVEIKR							binding result [2]: no binding
“AT” antibody variant S97A, N98A (heavy chain CDR3) (antibody, name in Kabat numbering, V domains shown, not shown: human IgG1 CH1, hinge, CH2 and CH3) VH: QVQLVQSGAEVRKPGASVKVSCKASGYDFSNYAIHWVRQAPGQRLEWMGWINAGNGNTKFSQKFQGRITVTRDTAASTAYMELRSLRSEDTAVYYCARDSAAMVRGIIIAYYFDYWGQGTLVTVSS VL: EIVMTQSPSSLSASVGDRVTITCRASQSISRYLNWYQLKPGKAPRLLIYGASSLQSGVPSRFSGSGSGAEFTLTISSLQPEDIATYYCQHTRAFGQGTKVEIKR							binding result [1]: no binding
“AT” antibody variant S96A, S97A, N98A (heavy chain CDR3) (antibody, name in Kabat numbering, V domains shown, not shown: human IgG1 CH1, hinge, CH2 and CH3) VH: QVQLVQSGAEVRKPGASVKVSCKASGYDFSNYAIHWVRQAPGQRLEWMGWINAGNGNTKFSQKFQGRITVTRDTAASTAYMELRSLRSEDTAVYYCARDAAAMVRGIIIAYYFDYWGQGTLVTVSS VL: EIVMTQSPSSLSASVGDRVTITCRASQSISRYLNWYQLKPGKAPRLLIYGASSLQSGVPSRFSGSGSGAEFTLTISSLQPEDIATYYCQHTRAFGQGTKVEIKR							binding result [1]: no binding

Further lines, with some results ahead:

Kd [1]	koff [1]	kon [1]	Kd [2]	koff [2]	kon [2]	Binder	also measured
			0.87 nM	0.0018 s⁻¹	2.1e+06 M⁻¹ s⁻¹	“AT” antibody variant S97I (heavy chain CDR3) (antibody, name in Kabat numbering, V domains shown, not shown: human IgG1 CH1, hinge, CH2 and CH3) VH: QVQLVQSGAEVRKPGASVKVSCKASGYDFSNYAIHWVRQAPGQRLEWMGWINAGNGNTKFSQKFQGRITVTRDTAASTAYMELRSLRSEDTAVYYCARDSINMVRGIIIAYYFDYWGQGTLVTVSS VL: EIVMTQSPSSLSASVGDRVTITCRASQSISRYLNWYQLKPGKAPRLLIYGASSLQSGVPSRFSGSGSGAEFTLTISSLQPEDIATYYCQHTRAFGQGTKVEIKR	
			4.59 nM	0.00411 s⁻¹	895000 M⁻¹ s⁻¹	“AT” antibody variant S97N (heavy chain CDR3) (antibody, name in Kabat numbering, V domains shown, not shown: human IgG1 CH1, hinge, CH2 and CH3) VH: QVQLVQSGAEVRKPGASVKVSCKASGYDFSNYAIHWVRQAPGQRLEWMGWINAGNGNTKFSQKFQGRITVTRDTAASTAYMELRSLRSEDTAVYYCARDSNNMVRGIIIAYYFDYWGQGTLVTVSS VL: EIVMTQSPSSLSASVGDRVTITCRASQSISRYLNWYQLKPGKAPRLLIYGASSLQSGVPSRFSGSGSGAEFTLTISSLQPEDIATYYCQHTRAFGQGTKVEIKR	
			1.18 nM	0.00358 s⁻¹	3.04e+06 M⁻¹ s⁻¹	“AT” antibody variant S97V (heavy chain CDR3) (antibody, name in Kabat numbering, V domains shown, not shown: human IgG1 CH1, hinge, CH2 and CH3) VH: QVQLVQSGAEVRKPGASVKVSCKASGYDFSNYAIHWVRQAPGQRLEWMGWINAGNGNTKFSQKFQGRITVTRDTAASTAYMELRSLRSEDTAVYYCARDSVNMVRGIIIAYYFDYWGQGTLVTVSS VL: EIVMTQSPSSLSASVGDRVTITCRASQSISRYLNWYQLKPGKAPRLLIYGASSLQSGVPSRFSGSGSGAEFTLTISSLQPEDIATYYCQHTRAFGQGTKVEIKR	
			24.5 nM	0.0269 s⁻¹	1.1e+06 M⁻¹ s⁻¹	“AT” antibody variant S97P (heavy chain CDR3) (antibody, name in Kabat numbering, V domains shown, not shown: human IgG1 CH1, hinge, CH2 and CH3) VH: QVQLVQSGAEVRKPGASVKVSCKASGYDFSNYAIHWVRQAPGQRLEWMGWINAGNGNTKFSQKFQGRITVTRDTAASTAYMELRSLRSEDTAVYYCARDSPNMVRGIIIAYYFDYWGQGTLVTVSS VL: EIVMTQSPSSLSASVGDRVTITCRASQSISRYLNWYQLKPGKAPRLLIYGASSLQSGVPSRFSGSGSGAEFTLTISSLQPEDIATYYCQHTRAFGQGTKVEIKR	
